Assay: soluble on expression in E. coli; label from the status in PepcDB or PDB records

Sequence | soluble on expression in E. coli
MTAAIAAPAYDAIVIGSGIGGLVTATQLAAKGAKVLVLERYLIPGGSAGWFEREGYRFDFGASIIFGFGDPGTTNLLTPPLADVGQALETIPDPVQIHYHLPNQLDLKVHRDYEAFLQELIAQFPQEAEGIRRFYDECWQVFNCLNAMPLLSLEEPKYLFNVFLQHPLACLGLVKYLPQNVGDIARRYIRNPDLLKFIDMECYCWSVVPATMTPMINAGMVFSDRHYGGINYPKGGVGRIAEKLVAGLEAKGSSIRYKARVTRILTEKGRAIGVELADGEKLYAKRIISNATRWNTFG | soluble
MTAGLHHAAANGVRVRPFRRHPTKRYILTGAPGAGKTVLLRALETAGEVVVEEAATDVIALAQAQGVDQPWTDPGFIDTIVGLQRQRQTRAVGDRIFFDRSPVCALALARFLGHPVSALLEDELARIVREGVYQRRVFLVQGLGFITPTAARRISLDDAQAFEEVHQAAYTELGFELAPIAPGPVGDRVRRVLGAVLEHHHHHH | not soluble
MTALPLSAVTVVSVCYNSDRLIRDLVTAIPDETPIILVDNGHTNTFADLPPHRNVIIVKLDHNLGFGRGCNAGADVAQTPWILFLNPDARLNPGAIEGLLQAAAQYPSAIAFNPRIYNEDGSPYFKRRSWLLPRQHYMKKGWPSADAVVPVLSGAALFVSKKSFDYIGGFDPSIFMYHEDDDLSLRLSALGELRFVRNSTVVHFAGYSSGRSPEIARFKAYHMAQSKIYAGQKHHRPFAKTSTLLQGCLLLLSPHVFFSARRRAKALGFLHGALAKIWSELLNAASTSSQKKT | soluble
MTARYIAIDWGSTNLRAWLYQGDKCLESRQSEAGVTRLNGKSPDAVLAEVTTHWRDSATPVVMAGMIGSNVGWQNAPYLPVPALFSAIGEQLTAVGDNIWIIPGLCVSREDNHNVMRGEETQLLGACELSPSSVYVMPGTHCKWVQTDTQQIHDFRTVMTGELHHLLLRHSLVGAGLPEQEVSGDAYAAGLERGLNSPAVLPSLFEVRASHVLGHLAREQVSDFLSGLLIGAEVASMSESFAAQQAITLVAGPALISRYQQAFSAIGRDVSTVDGDMAFQAGIRSIAHAVAN | not soluble
MTAYGFIIPVFNHPHYLDQLVETLSRYQLPMILVNDGSNEECSTKLRVLDQSYTQVHLVEHAYNQGKGQAVITGLHYADQLGLSHALQIDCDGQHQWADVEQFLQLSQQYPEKVIIGQPIFDASIPKKRLYGRYLTHVWVWINSLSFEIKDSMCGFRVYPLGPTLKVIKQAKFQPRMGFDSEILVRLKWENLAFINVPTAVIYPEHGILEHHHHHH | not soluble
MTDDNDNKNTELPMSASEVTAGTKIVRRAANQKPSRVVADICVVGSGAAGMSAAIEGARAGRKVVLVDSLPALGGQAVNSIIGTFCGLFSNGSDGYQFTHGIADDLLGDLGAQENALFYRRGPHTTVVYYDEVALGRWVEKAMLAAGVTVIVGAVMRNVRVAGRRVTGIDLSTRYGDVEVEANGFVDASGDAALVWQAGFACREPDDGPIYGTQMLIVENIDESKVPSREELPARMREKAGDYGLLRREGLSFVIPGRGVAAMNMTHVETPLEPLEASRKGIEGKDQADRAFAFLRNEFPACFGKARIRAYGLPGIRQTRWIVGRQQLSVDDVRAGTKFEDAIGRTAWPIELHDHGSGHHWHIFDKDHVHYVPFGSLTPQEAENIVAAGRCIDADKAALSSVRVMGPCMAMGAAAAHALDLAGSGSVHQIDIDALKWRVRDNLERTDLEHHHHHH | not soluble
MTDETENVPKTEQEVPNDPESEKEVKEDAKEEVKDLIPEFYSQHGGDPRLIDIAASVWLSGIPTDFITDTYEQFCETIKNIMKMGHKLDVSTVSKIVRIPNLDSNAKNSEHALRALICFSDKKHIYRMMTREAEFAKEEMKVELIEELPSDALEISEDDKCLLLNGLVEAEDAGDDVDVGGGDDDEIDELMDHDDEGGHDEHEEDEESDVKKEEEKGSEKKEKKPEPPKKKVYEDEDEKAPFEMYWDGAPEFQWRLCEGPRDEKKLIIDNLLWADLNNVFIYRTIQKSTTCEINFPTRFNSDGNRTCHGKLTLFFPGNVAIMDEALKHLVYFRSGDGRRIKVFLPQTTVSLKRKEEFEGKLGRVIKPTERMMQLIVKILPDGYTPTLDEACAWFPLQAVIQCDLVNDEMGNPCAVVKFETAEEAVAAHAGKSFVTIVQKSMITVKDSEGNEKEEEKETETHCNVFMRGGIIMGF | not soluble
MTDIAQLLGKDADSLLQHRCMTIPSDQLYLPGKDYVDRVMIDNNRPPAVLRNMQTLYNTGRLAGTGYLSILPVDQGVEHSAGASFAANPRYFDPKNIVELAIEAGCNCVASTYGVLASVSRRYAHRIPFLVKLNHNETLSYPTEYDQTLYASVEQAFNMGAVAVGATIYFGSEQSRRQIEEISAAFERAHELGMVTVLWAYLRNSSFKKDGVDYHVSADLTGQANHLAATIGADIVKQKMAENNGGYKAVNFGYTDDRVYSKLTSDNPIDLVRYQLANCYMGRAGLINSGGADGGDTDLGDAVRTAVINKRAGGMGLILGRKAFKKSMADGVKLINAVQDVYLDSKVTIA | not soluble
MTDKLPFALYSRCVKAGKRFYYIDAKRDSKGNDYLVITESNSAEEGSAMTRHKVFLYREDFAKFTEAFLDVLKSFEKRSGVSGCEQAIGLSELEQSLSDMTTGVEGLAESSDSILEEDEPLKIDFDF | not soluble
MTDRRQYAPATQRNRETIAAVLQEYLPSQGSILEIASGTGEHACFFAPLFSPRWWITSDPDPLCRESIMAWRDHQALANFQSPLDLDVNDQVWPVEREILREPVTSIVAINLIHISPWESCLGLLTGAERILPEGGILYLYGPYRQKGVPTAPSNEAFDQSLQSRNPAWGLRQLEDVIGEAGKRNLHNQAIIPMPANNLSVIFQKGLEHHHHHH | not soluble
MTDTARKIVAQPLSAAAFAPFGQVIDTAQVASRPMNDGRARRFHDLAEIEVIGNGARVVVGLVEAEPYAVPLWLNLVERHPLGAQAFVPLNAAPFLVVVCPDESGKPGAPQAFITAPHQGVCYARNTWHSVLTPFGAAQDFVVIDRGGPGVNLEEHLFDEPWIVHLSTSGLEHHHHHH | soluble
MTDVVVAGGGLAGLVAARHLAESGRDVTVFEQRSDVGGRVRTVHEDGYTFDRGFQVMFTAYPAAKRELDIEALAPRTFTPGATIASPNHRSVLSDPLRNPSAAPQTLLNTDVRTADKLRLFRLQRELAGVEPVELLSRGGTTIREYLADYGFSKRFVERFAAPFYGGITLDRSLGTDSSIFEYTYKMLSEGEIFVPADGMQAMPRQLADRARSAGATIETDAPVTELETHEGEVTAEVGRETVTAESAVVATDPQTAAELTDIDAIPTEPVGCVTQYFALPTNRAPATGQRIILNATDDRPNTVAPLSAVASEYAPAGMELYSATFLGTPEEDDAELAAEVRAALQSWYPNASFEALELLRTDRVPLSQFAQPPGYRDALPDPTAPEGNAVLAGDYTRWSAIQGALESGKVAADLLRLEHHHHHH | not soluble
MTDWLYRYPKLYPGFLLKRYKRFFADVQLTSGEVVTAHCPNTGPMTGVSKIGSPVQLSQSDNPNRKLAYTLELIQVQEQEPTWVGVNTALPNRVIKLALEKFLFPELRDYTQVKGEVIYGKDKKSRVDFYLTGSEKQSPIYLEVKNTTWTQGNLALFPDTETTRGQKHLRELMEVLPHSRAVMLYFINRGDCPEFAPGDSTDPVYGKLLRQAITVGLEVLPCRFDVSPEGIRYLGLAKLKT | not soluble
MTEAEDFAQLLQKLQNASPALPEGTSSTPTPSSSTGLLPNGKKTKGRVKIKMEYINNKLRRYTTFSKRKTGIMKKAFELSTLTGTQVMLLVASETGHVYTYATPKLQPMISSDTGKAMIQSCLNAPGGDGSDVQPSRTEFTFDSGNGGNGMRKRKMLSDVMSAESSNNSPSMPNFTPFLAPSMAPLFSTFGEDDYNNDESGDDSDSEEASSDIKEEYQGSPTMVKQETTEIDSVTASLQQRIKEAMRQAASNKQAIKKAKITPPSSNMNNAAFLNPFLLQGGANASNLLATAARKGDDAGSLTSNPFLSMGLNLQQLIESAAIASNE | not soluble

Source: the DeepSol protein solubility set
